Results on eleven molecules are retold here after patent publication US20040146519A1.

In one assay the target is HLA-B*0702 (human). As to the kind of experiment: inhibition of 125I probe peptide, purified HLA. To be noted: remark: other sources report otherwise.
For a further assay, the target named is HLA-B*5301 (human). As to the kind of experiment: inhibition of 125I probe peptide, purified HLA. As to conditions: remark: other sources report otherwise.
A further assay addresses HLA-A*3101 (human). Kind of assay: competition with 125I probe peptide for purified HLA. To be noted: remark: other sources report otherwise.
For another assay, the target named is HLA-B*5401 (human). Kind of assay: inhibition of 125I probe peptide, purified HLA. To be noted: remark: other sources report otherwise.
Another assay concerns the target HLA-B*5101 (human). Kind of assay: inhibition of 125I probe peptide, purified HLA. As to conditions: remark: other sources report otherwise.
Assay [1] has as its target HLA-A*0206 (human). Kind of assay: inhibition of 125I probe peptide, purified HLA. As to conditions: remark: other sources report otherwise.
Assay [2] has as its target HLA-A*0206 (human). As to the kind of experiment: competition with 125I probe peptide for purified HLA. As to conditions: remark: other sources report otherwise.
Another assay deals with HLA-A*0201 (human). Kind of assay: competitive inhibition of 125I probe peptide, purified HLA.
Another assay deals with T1, HLA-DRB1*1302 (human).
T1 chain 1: not shown
T1 chain 2: not shown
As to the kind of experiment: competition with 125I probe peptide, purified HLA. As to conditions: remark: other sources report otherwise.

Another assay addresses T2, HLA-DRB1*1501 (human).
T2 chain 1: not shown
T2 chain 2: not shown
Kind of assay: competition with 125I probe peptide, purified HLA. As to conditions: remark: other sources report otherwise.

As a reminder, the IC50 is the midpoint of a concentration-inhibition curve. High values mean weaker potency, low ones greater potency.

Take LPQHLFGYSI [CEA.58.I10]: the IC50 with HLA-B*0702 (human) was determined as 212 nM; in the assay with HLA-B*5301 (human) it was 930 nM.

RTLTLFNVTR [CEA.554] showed an IC50 with HLA-A*3101 (human) of 5 nM. In other words, the single-digit nanomolar range. On to IPWQRLLLTI [CEA.13.I10], for which the IC50 is 270 nM in the assay with HLA-B*5401 (human), 19 nM in the assay with HLA-B*5101 (human) and 39 nM in the assay with HLA-B*0702 (human).

For YPNASLLI [CEA.102], the IC50 in the assay with HLA-B*5401 (human) came out at 137 nM; with HLA-B*5301 (human), 40 nM. Molecule RVLTLFNVTR [CEA.554.V2] displayed an IC50 with HLA-A*3101 (human) of 9 nM.

In the case of YLSGANLNV [CEA.605.V9], the IC50 with HLA-A*0206 (human) [1] came to 80 nM. Take IPWQRLLLTA [CEA.13, 10 AA]: the IC50 in the assay with HLA-B*5401 (human) amounted to 3.2 nM. For YLSGANLNV [CEA.605V9], in the assay with HLA-A*0206 (human) [2], the IC50 was found to be 80 nM.

SLLTFWNPPT [CEA peptide, position 23, 10 amino acids]: the relative binding ratio (IC50 standard/IC50 peptide) in the assay with HLA-A*0201 (human) turned out to be 0.0022.

For RWCIPWQRLLLTASL [CEA.10], the figures for the IC50 in the assay with HLA-DRB1*1302 (human) and with HLA-DRB1*1501 (human) were 318 nM and 827 nM, respectively. RTLTLLSVTR [CEA.376] returned an IC50 in the assay with HLA-A*3101 (human) of 6.2 nM.
